Among the data in patent US7063950 are Kd and binding capacity (Bmax) (sites per cell) values, retold here.

Usually Kd stands for the constant that tells how readily two partners part at equilibrium.

This assay has as its target human neuronal calcium channel α1B-1α2bβ1-2 (human). Nature of the assay: ω-CgTx binding to transiently transfected HEK293 cells (plasmid ratio 2:1.8:1).

Take “ω-CgTx GVIA (from UniProt P01522 46-72) (peptide)”: the equilibrium dissociation constant (Kd) was determined as 0.0546 nM and the binding capacity (Bmax) (sites per cell) is 28700.
